Assay [1] concerns the target T1, recombinant human LAG-3-Fc (human, UniProt P18627 23-450).
T1 construct: also called human LAG-3 (R&D Systems cat no. 2319-L3); LAG3 antigen
T1 sequence: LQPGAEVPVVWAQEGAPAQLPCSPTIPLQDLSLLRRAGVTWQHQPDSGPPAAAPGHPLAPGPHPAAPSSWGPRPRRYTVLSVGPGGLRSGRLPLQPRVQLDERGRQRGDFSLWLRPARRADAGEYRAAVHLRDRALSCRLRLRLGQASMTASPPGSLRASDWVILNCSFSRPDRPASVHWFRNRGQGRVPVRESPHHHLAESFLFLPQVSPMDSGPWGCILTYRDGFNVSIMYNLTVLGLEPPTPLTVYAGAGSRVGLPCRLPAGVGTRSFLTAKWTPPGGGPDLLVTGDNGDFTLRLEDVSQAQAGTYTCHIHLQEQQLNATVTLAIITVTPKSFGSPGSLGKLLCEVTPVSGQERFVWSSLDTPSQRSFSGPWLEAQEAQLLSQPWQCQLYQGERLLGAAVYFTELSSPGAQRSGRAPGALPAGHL
As to the kind of experiment: ELISA, coated antigen, VH at 10 µg/ml, anti-HIS HRP. How it is done:
(§1) To screen specificity by ELISA, antigens were coated at 1-5 ug/ml and blocked with Marvel milk powder. VH were added at 10 μg/ml and incubated for 1 hour. After washing, HRP-conjugated anti-HIS antibody (Miltenyi cat no. 130-092-785) was added. TMB substrate and acidic solution were used to develop colorimetric signal.
A general note: An ELISA detects its analyte on a solid surface through an enzyme-linked reagent.

The target of assay [2] is T2, Rhesus monkey LAG-3 (used as cynomolgus LAG-3) (Rhesus monkey (called cynomolgus in the …)).
T2 construct: extracellular domain
The assay is described as above. On the procedure:
as §1

The target in assay [3] is T3, human LAG-3 domains 1-2-Fc (human, UniProt P18627 23-261, limits assumed).
T3 construct: Domains were identified as per Huard et al 1997 PNAS 94:5744-9; also called truncated LAG-3
T3 sequence: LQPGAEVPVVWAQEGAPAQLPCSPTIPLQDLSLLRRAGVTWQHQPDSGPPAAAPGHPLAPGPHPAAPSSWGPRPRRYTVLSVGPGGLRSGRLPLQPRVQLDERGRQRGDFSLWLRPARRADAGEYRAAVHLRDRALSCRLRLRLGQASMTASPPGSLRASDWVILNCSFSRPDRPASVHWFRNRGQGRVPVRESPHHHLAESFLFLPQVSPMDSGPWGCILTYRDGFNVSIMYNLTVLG
Described as above. How it is done: as §1

Assay [4] deals with T1, recombinant human LAG-3-Fc. Kind of assay: BLI (Octet); human LAG-3-Fc captured on protein G biosensors, 1:1 fit. (In general: In BLI a coated tip is dipped into the sample, and binding shifts an interference pattern.)
The target of assay [5] is T4, recombinant human PD-1 Fc chimera (human, UniProt Q15116 25-167).
T4 construct: Bought Fc chimera; also called human PD-1 (R&D systems cat no. 1086-PD); PD1 antigen
As to the kind of experiment: Octet bio-layer interferometry; VH (100 nM) first bound to immobilised LAG3-Fc, then PD-1-Fc added. On the procedure: Recombinant LAGS-Fc (10 μg/ml) was immobilised by standard amine coupling to amine reactive biosensors in 10 mM sodium acetate at pH6. The binding steps were performed in 0.1% BSA 0.02% Tween20 in PBS. 100 nM of Humabody® were used in the first binding step, followed by binding of human PD1-Fc at 5 μg/ml. The contact time for association and dissociation was 200 seconds.

The target in assay [6] is T5, human LAG-3 expressed on cells (human, UniProt P18627 23-525).
T5 construct: also called CHO cells expressing human LAG-3; CHO human LAG-3 cells
T5 sequence: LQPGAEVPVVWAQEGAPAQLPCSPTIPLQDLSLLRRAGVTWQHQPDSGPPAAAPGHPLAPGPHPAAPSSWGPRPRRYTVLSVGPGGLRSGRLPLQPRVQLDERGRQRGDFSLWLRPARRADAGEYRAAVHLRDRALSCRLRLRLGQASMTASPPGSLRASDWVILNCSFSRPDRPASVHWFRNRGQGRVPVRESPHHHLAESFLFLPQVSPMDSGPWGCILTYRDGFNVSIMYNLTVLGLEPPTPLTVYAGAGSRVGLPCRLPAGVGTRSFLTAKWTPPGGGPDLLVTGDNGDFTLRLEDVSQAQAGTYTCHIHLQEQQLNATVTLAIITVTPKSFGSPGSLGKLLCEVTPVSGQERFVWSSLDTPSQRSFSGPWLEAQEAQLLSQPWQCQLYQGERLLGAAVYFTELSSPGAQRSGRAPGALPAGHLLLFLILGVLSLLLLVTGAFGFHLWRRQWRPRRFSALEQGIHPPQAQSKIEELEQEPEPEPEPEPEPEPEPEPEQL
Kind of assay: flow cytometry (Intellicyte) on anti-CD3/anti-CD28 stimulated human CD4+ T cells; His-tagged VH detected with anti-HIS biotin and streptavidin AlexaFluor488. How it is done:
FIG. 2. CD4+ T cells were stimulated with anti-CD3 and anti-CD28. Cells were stained with HIS tagged VH plus anti-HIS tag labelled with biotin and streptavidin AlexaFluor488. Cells were analysed using Intellicyte® cytometer.
Binding onto human activated T cells was measured by cytometry. PBMC or magnetically isolated T cells were isolated from leukocytes cones and cells were incubated in 96 well plates coated with anti-CD3 (OKT3) at 5 μg/ml. Anti-CD28 (CD28.2) was added at 1 μg/ml in RPMI media and foetal bovine serum. After 72-96 hours, cells were harvested and stained using standard flow cytometry methods. […] Fluorescently labelled anti-CD4 and anti-CD8 were included in PBMC cultures and a live/dead dye. Stained cells were analysed using the IQue cytometer (Intellicyte). EC50 were calculated from the titration curve of median fluorescence of Humabody, gating on CD4+ or CD8+ cells if using mixed cells.
(A flow cytometer gives signals particle by particle.)

The target of assay [7] is T1, recombinant human LAG-3-Fc. As to the kind of experiment: competition ELISA; LAG-3-Fc pre-incubated with VH, binding to coated LSECtin. The source says:
The plate was blocked with 3% Marvel skimmed milk powder in PBS. […] Wash steps were done 3 times with PBS 0.05% Tween. Colour was developed using TMB and 0.5M sulphuric acid solution.

Where only a bound is given, the exact number is not on record here.

One may read the Kd as the constant that tells how readily two partners part at equilibrium. As usually defined, the koff is a measure of how fast the partners let go of each other. The term kon denotes the second-order rate constant of association. One may read the EC50 (read off the curve) as the concentration that produces a half-maximal response. For orientation: IC50 means the concentration that gives 50% inhibition.

T4 sequence (Q15116 25-167 limits assumed, change not shown): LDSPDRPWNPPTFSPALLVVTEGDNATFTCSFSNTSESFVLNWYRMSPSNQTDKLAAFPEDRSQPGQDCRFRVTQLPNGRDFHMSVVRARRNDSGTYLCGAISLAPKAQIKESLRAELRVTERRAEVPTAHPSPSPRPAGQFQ

B1: VH1.1-6GS-VH1.1-His6 (VHH)
chain: EVQLVESGGGVVRPGGSLRLSCSASGFTFDDYGMSWVRQAPGKGLEWVSGIHWNGGNSGYADSVKGRFTISRDNAKNSLYLQMNSLRAEDTALYYCARIPREDCSSASCYTDAIDFWGPGTMVTVSSGGGGSGGGGSGGGGSGGGGSGGGGSGGGGSEVQLVESGGGVVRPGGSLRLSCSASGFTFDDYGMSWVRQAPGKGLEWVSGIHWNGGNSGYADSVKGRFTISRDNAKNSLYLQMNSLRAEDTALYYCARIPREDCSSASCYTDAIDFWGPGTMVTVSSAAAHHHHHH
notes: Tandem fusion of two VH 1.1, bivalent for LAG-3; The entry includes the C-terminal AAA-His6; also called 1.1-6GS-1.1; bivalent 1.1-6GS-1.1
Take B1: the “ELISA signal over background” value in assay [1] is over 10 fold over background. The “ELISA signal over background” value in assay [2] was over 10 fold over background. Moreover, in assay [3], the “ELISA signal over background” value was over 10 fold over background. For the same molecule, in assay [4], the Kd was found to be 0.417 nM, the koff was determined as 0.00047 s⁻¹ and the kon came to 1.13e+06 M⁻¹ s⁻¹. Besides, in assay [5], the binding result was “no binding”. The “EC50 (read off the curve)” value in assay [6] was about 0.1 nM. For the same molecule, the IC50 in assay [7] turned out to be 55 nM.

For the origin of these results see patent US20210015937A1 (CRESCENDO BIOLOGICS, published 2021).
